US20150315275A1 (AstraZeneca / MedImmune, published 2015)
Where “and” joins values, the source holds several entries; their conditions need not be identical. Equal values may be shown once.

Tests used:
[1] = target: T1, B7-H4 fusion protein Variant 1: IgV residues 29-149 of SEQ ID NO:1 (human, UniProt Q7Z7D3 29-149); assay: ELISA, B7-H4 Fc fusion protein immobilized at 1 µg/ml, mouse antibody titrated, anti-mouse Ig HRP
T1 construct: Human IgG1 Fc fusion protein; also called IgV only; not shown: human IgG1 Fc
T1 chain: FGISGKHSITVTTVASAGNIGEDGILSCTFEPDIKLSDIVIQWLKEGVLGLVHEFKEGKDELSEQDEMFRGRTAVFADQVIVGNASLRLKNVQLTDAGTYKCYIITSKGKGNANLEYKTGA
Description: (§1) 100 μl 1 μg/ml human IgG1 Fc fusion proteins diluted in PBS consisting of different segments of B7-H4 Extracellular domains were immobilized on flat bottom 96 well plates (Costar 9017) overnight at 4° C. […] Plates were washed twice with PBS+0.1% PS-20 and blocked with 200 μl/well PBS 10% FBS at RT for 1 hr. A titration of mouse anti-human B7-H4 antibodies 2H9, 2D1, 2E11, 6H3, 8E11 or H74 diluted in PBS 10% FBS were added to the plates and incubated at RT for 1 hr. Plates were washed three times and 100 μl 1 μg/ml anti-mouse Ig HRP (Sigma) was added to each well and incubated at RT for 1 hr. Plates were washed six times and 100 μl TMB substrate (SurModics) was added to each well for 5-15 mins. 100 μl stop solution (0.1M Sulfuric acid) was added to each well. Plates were read at Absorbance 450 nm by PerkinElmer EnVision 2104 Multilabel Reader.

[2] = target: T2, B7-H4 fusion protein Variant 2: IgV residues 29-154 of SEQ ID NO:1 (human, UniProt Q7Z7D3 29-154); assay: as above
T2 construct: Human IgG1 Fc fusion protein; also called IgV only; not shown: human IgG1 Fc
T2 chain: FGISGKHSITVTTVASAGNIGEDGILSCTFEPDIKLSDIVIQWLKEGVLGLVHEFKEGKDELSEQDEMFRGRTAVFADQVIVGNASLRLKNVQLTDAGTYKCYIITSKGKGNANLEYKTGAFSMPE
Description: as §1

[3] = target: T3, B7-H4 fusion protein Variant 3: IgV residues 29-158 of SEQ ID NO:1 (human, UniProt Q7Z7D3 29-158); assay: as above
T3 construct: Human IgG1 Fc fusion protein; also called IgV only; not shown: human IgG1 Fc
T3 chain: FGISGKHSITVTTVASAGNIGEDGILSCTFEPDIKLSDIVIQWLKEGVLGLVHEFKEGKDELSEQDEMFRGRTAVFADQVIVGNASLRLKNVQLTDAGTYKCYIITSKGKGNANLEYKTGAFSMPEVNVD
Description: as §1

[4] = target: T4, B7-H4ECD his-tagged protein (Sinobiologics) (human, UniProt Q7Z7D3 25-259); assay: ELISA, B7-H4ECD his-tagged protein coated
T4 construct: Bought protein; Result paragraph calls the target human B7-H4; also called B7-H4 extracellular domain; not shown: his tag
T4 sequence: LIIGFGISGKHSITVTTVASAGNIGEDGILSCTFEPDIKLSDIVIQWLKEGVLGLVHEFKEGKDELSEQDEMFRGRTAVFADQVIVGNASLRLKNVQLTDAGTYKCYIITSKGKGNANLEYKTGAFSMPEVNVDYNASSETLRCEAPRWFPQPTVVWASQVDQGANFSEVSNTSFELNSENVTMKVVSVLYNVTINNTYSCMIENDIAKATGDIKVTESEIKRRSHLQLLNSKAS
Description: 100 μl 1 μg/ml B7-H4ECD his-tagged protein (Sinobiologics) diluted in PBS was immobilized on flat bottom 96 well plate (Costar 9017) overnight at 4° C. Plates were washed twice with PBS+0.1% PS-20 and blocked with 200 μl/well PBS 10% FBS at RT for 1 hr. 100 μl chimeric 6H3 and 14 selected 6H3 humanized variants diluted in PBS 10% FBS were added to each well and incubated at RT for 1 hr. Plates were washed three times and 100 μl 1 μg/ml anti-human Ig HRP (Sigma) was added to each well and incubated at RT for 1 hr. Plates were washed six times and 100 μl TMB substrate (SurModics) was added to each well for 5-15 mins 100 μl stop solution (0.1M Sulfuric acid) was added to each well. Plates were read at Absorbance 450 nm by PerkinElmer EnVision 2104 Multilabel Reader.

[5] = target: T5, mouse B7-H4ECD mIgG2a Fc fusion protein (mouse, UniProt Q7TSP5 25-257, limits assumed); assay: ELISA, mouse B7-H4ECD mIgG2a Fc fusion coated
T5 construct: also called mouse B7-H4-mIg fusion protein; Mouse B7-H4-mouse-Ig Fusion Protein; not shown: mouse IgG2a Fc
T5 sequence: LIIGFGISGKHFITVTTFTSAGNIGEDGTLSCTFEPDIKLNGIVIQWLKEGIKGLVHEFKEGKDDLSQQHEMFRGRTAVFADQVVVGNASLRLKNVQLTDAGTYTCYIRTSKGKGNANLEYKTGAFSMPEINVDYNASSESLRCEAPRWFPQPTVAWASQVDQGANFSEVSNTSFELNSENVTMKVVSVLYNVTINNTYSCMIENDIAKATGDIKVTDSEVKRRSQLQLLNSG
Description: 100 μg/ml mouse B7-H4ECD mIgG2a Fc fusion protein diluted in PBS was immobilized on flat bottom 96 well plate (Costar 9017) overnight at 4° C. Plates were washed twice with PBS+0.1% PS-20 and blocked with 200 μl/well PBS 10% FBS at RT for 1 hr. 100 μl chimeric 6H3 and 14 selected 6H3 humanized variants diluted in PBS 10% FBS were added to each well and incubated at RT for 1 hr. Plates were washed three times and 100 μl 1 μg/ml anti-human Ig HRP (Sigma) was added to each well and incubated at RT for 1 hr. Plates were washed six times and 100 μl TMB substrate (SurModics) was added to each well for 5-15 mins 100 μl stop solution (0.1M Sulfuric acid) was added to each well. Plates were read at Absorbance 450 nm by PerkinElmer EnVision 2104 Multilabel Reader.

[6] = target: T6, human B7-H4 expressed on cells (human, UniProt Q7Z7D3 25-282); assay: flow cytometry on HEK293.hB7-H4 transfectants, one-site specific binding fit
T6 construct: the cell line is named under assay or readout; also called full length human B7-H4 on HEK293 cells; 293T.hB7-H4
T6 sequence: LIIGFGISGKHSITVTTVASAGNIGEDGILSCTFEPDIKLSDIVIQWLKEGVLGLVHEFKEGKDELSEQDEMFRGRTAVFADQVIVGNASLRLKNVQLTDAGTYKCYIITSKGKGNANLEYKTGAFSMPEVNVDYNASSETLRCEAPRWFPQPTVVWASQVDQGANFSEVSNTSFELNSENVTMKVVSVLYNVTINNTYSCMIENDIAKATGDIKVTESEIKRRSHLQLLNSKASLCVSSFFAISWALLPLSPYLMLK
Description: For each staining, 0.2 million HEK293.hB7-H4 transfectants were resuspended in 100 μl flow cytometry buffer (PBS+2% FBS). A serial dilution of chimeric 6H3 and 14 humanized variants of 0, 0.1 ng, 0.3 ng, 1 ng, 3 ng, 10 ng, 30 ng, 100 ng, 300 ng, 1 μg, 3 μg and 10 μg were added to the cells and incubated at 4° C. for 30 min. Cells were then washed twice with 2 ml flow cytometry buffer, and resuspended in 100 μl flow cytometry buffer. 1 μl anti-hIg PE secondary antibody (Biolegend) was added and incubated with the cells for 15 mins Samples were then washed and resuspended in 100 μl flow cytometry buffer. Flow Cytometry data was acquired using BD Canto (BD Biosciences) in plate format and analyzed by FlowJo software. Staining data (MFI) was then input into Prism 5 software to generate binding curve. Curve-fit using one-site specific binding algorithm calculates individual KD for each variant.

B7-H4-Ig fusion protein [7] = target: T7, B7-H4-Ig fusion protein (human); assay: competition ELISA on B7-H4-Ig-coated plate, Plate 2; competitor biotinylated mouse 6H3 (5 ng/ml)
T7 construct: also called human B7-H4 Ig
Description: (§2) A 12-point, 3-fold dilution series of 14 humanized 6H3 antibody variants was prepared ranging from 100 μg/ml to 0.5 ng/ml. Dilutions were prepared in assay diluent containing biotinylated mouse anti-human B7-H4 6H3 (SEQ ID NOS:3 and 5 for light chain variable region and heavy chain variable region respectively) at 5 ng/ml. Antibodies were allowed to bind to B7-H4-Ig-coated assay plates (200 ng/well) for 1 hour at room temperature and detected with streptavidin HRP.

[8] = target: T6, human B7-H4 expressed on cells; assay: saturation binding, flow cytometry on 624mel/B7-H4 cells, biotinylated mAb, azide-treated cells; unit not given
Description: A saturation binding experiment was carried out on 624mel/B7-H4 cells using the chimeric 6H3 mAb and humanized variants of 6H3. Briefly, 50,000 cells were pretreated with 0.1% azide on ice for 30 minutes to inhibit B7-H4 internalization then stained for 30 minutes with biotinylated anti-B7-H4 mAbs. The mAbs were diluted in a 12-point, 3-fold dilution series ranging from 200 μg/ml down to 1 ng/ml. Cell were stained with streptavidin PE for 10 minutes, washed, fixed and analyzed by flow cytometry.
FIGS. 35A-35B are binding curves for the raw (FIG. 35A) and background subtracted data (FIG. 35B). […] The subtracted values were used to determine the Kd and Bmax. The antibodies appear to fall into two groups based on Kd values (Table 10).

B7-H4-Ig fusion protein [9] = target: T7, B7-H4-Ig fusion protein; assay: competition ELISA on B7-H4-Ig-coated plate, Plate 1; competitor biotinylated mouse 6H3 (5 ng/ml)
Description: as §2

B1: anti-human B7-H4 antibody 2H9 (antibody, V domains shown)
VH: EVQLVESGGNLVKPGGSLKLSCAASGFTFSNSAMSWVRQTPEKRLEWVATISDGGRYTYYPDNVKGRFTISRDNAKNNLYLQMSHLKSEDTALYYCARDRPHWYFDVWGTGATVTVSS
VL: DIVLTQSPASLAVSLGQRATISCRASESIDNYGISFMHWYQQKPGQPPKLLIYRASNLESGIPARFSGSGSRTDFTLTINPVETDDVATYFCQQSDEGRTFGGGTKLEIK
notes: Mouse anti-human B7-H4 antibody; also called clone 2H9
B1: binds [1]; binds [2]; binds [3].

B2: humanized 6H3 variant 9 (antibody, V domains shown)
VH: EVQLVQSGAEVKKPGASVKVSCKASGYTFTDYYMNWVRQAPGQGLEWIGIINPYNGDTSYNQKFKGRVTLTVDKSTSTAYMELSSLRSEDTAVYYCARYPESTYWGQGTLVTVSS
VL: DIVMTQTPLSLPVTLGQPASISCRSSQSLVHINGNTYLHWYQQRPGQSPRVLIYKVSNRFSGVPDRFSGSGSGTDFTLKISRVEAEDVGVYFCSQSTHVPLTFGQGTKVEIK
notes: also called V9; 6H3 V9
With B2 the EC50 [4] was 0.75 nM, the EC50 [5] was 0.07 nM and the “Bmax(MFI)” value [6] was 553 MFI. For the same binder, the Kd [6] was 1.8 nM, the EC50 (B7-H4-Ig fusion protein [7]) was 2.69 µg/mL and 17.9 nM and the Bmax [8] was 4610.

B3: humanized 6H3 variant 13 (antibody, V domains shown)
VH: EVQLVQSGAEMKKPGASVKVSCKASGYTFTDYYMNWVRQAPGQSLEWMGVINPYNGDTTYNQKFQGRVTVAVDKSATTAYMELSSLRSEDTAVYYCARYPESTYWGQGTLVTVSS
VL: DIVMTQTPLSLPVTLGQPASISCRSSQSLVHINGNTYLHWYLQRPGQSPKVLIYKVSNRFSGVPDRFSGSGSGTDFTLKISRVEAEDVGVYFCSQSTHVPLTFGAGTKVEIK
notes: also called V13; H2B L2C
In the case of B3, the EC50 [4] is reported as 0.92 nM, the EC50 [5] is reported as 0.13 nM and the “Bmax(MFI)” value [6] is reported as 648 MFI. For the same binder, the Kd [6] was 7 nM and the EC50 (B7-H4-Ig fusion protein [7]) was 2.11 µg/mL and 14.1 nM.

B4: humanized 6H3 variant 14 (antibody, V domains shown)
VH: EVQLVQSGAEMKKPGASVKVSCKASGYTFTDYYMNWVRQAPGQSLEWIGVINPYNGDTTYNQKFQGRVTVTVDKSATTAYMELSSLRSEDTAVYYCARYPESTYWGQGTLVTVSS
VL: DIVMTQTPLSLPVTLGQPASISCRSSQSLVHINGNTYLHWYLQRPGQSPKVLIYKVSNRFSGVPDRFSGSGSGTDFTLKISRVEAEDVGVYFCSQSTHVPLTFGAGTKVEIK
notes: also called V14; 6H3 V14
B4 was tested, and the EC50 [4] was 0.68 nM, the EC50 [5] was 0.11 nM and the “Bmax(MFI)” value [6] was 629 MFI. The Kd [6] was 5.8 nM, the EC50 (B7-H4-Ig fusion protein [7]) was 2.49 µg/mL and 16.6 nM and the Bmax [8] was 5580.

B5: chimeric 6H3 (antibody, V domains shown)
VH: EVQLQQSGPVLVKPGTSVKMSCKASGYTFTDYYMNWVKQSHGKSLEWIGVINPYNGDTTYNQKFKGKATLTVDKSSSTAYMEVNSLTFEDSAVYYCARYPESTYWGQGTLVTVSA
VL: DVVMTQTPLSLPVSLGDQASISCRSSQSLVHINGNTYLHWYLQKPGQSPKVLIYKVSNRFSGVPDRFSGSGSGTDFTLKISRVEAEDLGVYFCSQSTHVPLTFGAGTKLELK
notes: Mouse variable regions with constant regions from the human IgG1 heavy chain and human kappa light chain; also called human chimeric 6H3; hc6H3
B5 was tested, and the EC50 [4] was 0.62 nM, the EC50 [5] was 0.09 nM and the “Bmax(MFI)” value [6] was 316 MFI. For the same binder, the Kd [6] was 5.8 nM, the EC50 (B7-H4-Ig fusion protein [9]) was 2.44 µg/mL and 16.2 nM and the EC50 (B7-H4-Ig fusion protein [7]) was 2.26 µg/mL and 15.1 nM. It also gave a Bmax [8] of 5810.

B6: humanized 6H3 variant 12 (antibody, V domains shown)
VH: EVQLVQSGAEVKKPGASVKVSCKASGYTFTDYYMNWVRQAPGQGLEWIGIINPYNGDTSYNQKFKGRVTLTVDKSTSTAYMELSSLRSEDTAVYYCARYPESTYWGQGTLVTVSS
VL: DIVMTQTPLSLPVTLGQPASISCRSSQSLVHINGNTYLHWYLQRPGQSPKVLIYKVSNRFSGVPDRFSGSGSGTDFTLKISRVEAEDVGVYFCSQSTHVPLTFGAGTKVEIK
notes: also called V12; 6H3 V12
In the case of B6, the EC50 [4] is reported as 0.78 nM, the EC50 [5] is reported as 0.09 nM and the “Bmax(MFI)” value [6] is reported as 597 MFI. For the same binder, the Kd [6] was 3.2 nM, the EC50 (B7-H4-Ig fusion protein [7]) was 3 µg/mL and 20 nM and the Bmax [8] was 4580.
